Measurements from article PMC6441110, “A novel 3-hydroxypropionic acid-inducible promoter regulated by the LysR-type transcriptional activator protein MmsR of Pseudomonas denitrificans” (Scientific Reports, 2019).
One block for each molecule: values may come before it.

Tests used:
MmsR = target: T1, MmsR (Pseudomonas denitrificans (nom. rej.), UniProt A0A9X7MYS1); test: EMSA with mmsA promoter DNA, purified MmsR with and without inducer; conditions: 25 mM 3-HP; 40 nM DNA probe; pH 7.4, 750 mM KCl; effector of DNA binding (inducer)
T1 construct: gene F1C79_09590; cell rows: native chromosomal MmsR; gene divergent from mmsA
T1 sequence (A0A9X7MYS1 1-298): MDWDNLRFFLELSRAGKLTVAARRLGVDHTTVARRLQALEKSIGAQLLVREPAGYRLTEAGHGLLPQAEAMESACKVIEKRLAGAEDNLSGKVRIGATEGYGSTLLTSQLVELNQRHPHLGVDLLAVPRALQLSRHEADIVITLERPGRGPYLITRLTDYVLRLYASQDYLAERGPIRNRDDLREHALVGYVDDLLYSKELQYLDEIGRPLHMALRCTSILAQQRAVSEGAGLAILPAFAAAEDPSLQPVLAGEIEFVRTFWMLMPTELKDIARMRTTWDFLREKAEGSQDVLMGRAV

[1] = target: MmsR, LysR-type transcriptional activator protein of Pseudomonas denitrificans, tagged with six histidine residues at the C-terminus (Pseudomonas denitrificans ATCC 13867); test: native gel or EMSA + SEC; native PAGE and/or gel filtration of purified His-tagged MmsR at the high concentration of 550 nM; monomer to dimer
[2] = target: T2, MmsR (LysR-type transcriptional activator, C4-LysR) (Pseudomonas denitrificans ATCC 13867, UniProt A0A9X7MYS1 1-298); test: EMSA; no 3-HP; stronger shift than F1M2; 50 mM Tris pH 7.4, 750 mM KCl (1X as printed), 0.5 mM DTT, 0.5 mM EDTA, room temperature; EMSA 40 nM DNA, 0-48.5 nM MmsR, 30 min; footprinting 230 nM DNA, 0-1.2 uM MmsR; conditions: protein: recombinant; tags: C-terminal His6 (pET30b+); chain copies: 2; label: none (SYBR Green stain); blunt
T2 sequence: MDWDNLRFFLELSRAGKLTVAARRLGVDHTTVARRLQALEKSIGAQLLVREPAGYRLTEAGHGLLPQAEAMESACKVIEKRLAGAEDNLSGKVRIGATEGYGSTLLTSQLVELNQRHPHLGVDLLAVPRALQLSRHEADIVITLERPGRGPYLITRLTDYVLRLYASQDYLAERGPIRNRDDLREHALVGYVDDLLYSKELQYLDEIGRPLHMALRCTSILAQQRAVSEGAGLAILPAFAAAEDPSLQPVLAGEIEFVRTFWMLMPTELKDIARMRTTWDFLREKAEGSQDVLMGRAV

[3] = target: T2, MmsR (LysR-type transcriptional …); test: EMSA; no 3-HP; 50 mM Tris pH 7.4, 750 mM KCl (1X as printed), 0.5 mM DTT, 0.5 mM EDTA, room temperature; EMSA 40 nM DNA, 0-48.5 nM MmsR, 30 min; footprinting 230 nM DNA, 0-1.2 uM MmsR; conditions: protein: recombinant; tags: C-terminal His6 (pET30b+); chain copies: 2; label: none (SYBR Green stain); blunt
[4] = target: T2, MmsR (LysR-type transcriptional …); test: DNase I footprinting; no 3-HP; O1 more protected than O2; 50 mM Tris pH 7.4, 750 mM KCl (1X as printed), 0.5 mM DTT, 0.5 mM EDTA, room temperature; EMSA 40 nM DNA, 0-48.5 nM MmsR, 30 min; footprinting 230 nM DNA, 0-1.2 uM MmsR; conditions: protein: recombinant; tags: C-terminal His6 (pET30b+); chain copies: 2; blunt

Molecule: O=C(O)CCO [compound 1, 3-hydroxypropionic acid]
- EMSA with mmsA promoter DNA, purified MmsR with and without inducer (MmsR): 3-HP promotes the binding affinity between MmsR and the PmmsA promoter

- stoichiometry N [1]: 2
Molecule: MmsR, LysR-type transcriptional activator protein of Pseudomonas denitrificans, tagged with six histidine residues at the C-terminus (natural protein)

B1: F12M (O1 intact, O2 mutant) (dsDNA)
DNA 1: GTCAGCCTCAGCGCACCTCGAATGTGCAAAAACGCAGACCATACTTGCACATCACCGCATTGAGTACATCAATCCTTGCTTGTTAGGATCGCGCCCAGGCACAAAAAAGCCACAGGCTGGGAGAATCCCG
DNA 2: CGGGATTCTCCCAGCCTGTGGCTTTTTTGTGCCTGGGCGCGATCCTAACAAGCAAGGATTGATGTACTCAATGCGGTGATGTGCAAGTATGGTCTGCGTTTTTGCACATTCGAGGTGCGCTGAGGCTGAC
- binding result [2]: binds

B2: F12 (O1 and O2 intact) (dsDNA)
DNA 1: GTCAGCCTCAGCGCACCTCGAATGTGCAAAAACGCAGACCATACTTGCACATCACCGCATTGAGTACATCAAAAATGCACTGTTAGGATCGATCCAGACAACAAAAAAGCCACAGGCTGGGAGAATCCCG
DNA 2: CGGGATTCTCCCAGCCTGTGGCTTTTTTGTTGTCTGGATCGATCCTAACAGTGCATTTTTGATGTACTCAATGCGGTGATGTGCAAGTATGGTCTGCGTTTTTGCACATTCGAGGTGCGCTGAGGCTGAC
- binding result [3]: binds

B3: 169 bp footprinting fragment (dsDNA)
DNA 1: CCGCAGGTTGTCCCAGTCCATGTCAGCCTCAGCGCACCTCGAATGTGCAAAAACGCAGACCATACTTGCACATCACCGCATTGAGTACATCAAAAATGCACTGTTAGGATCGATCCAGACAACAAAAAAGCCACAGGCTGGGAGAATCCCGATGACCGCAACTGCCCCG
DNA 2: CGGGGCAGTTGCGGTCATCGGGATTCTCCCAGCCTGTGGCTTTTTTGTTGTCTGGATCGATCCTAACAGTGCATTTTTGATGTACTCAATGCGGTGATGTGCAAGTATGGTCTGCGTTTTTGCACATTCGAGGTGCGCTGAGGCTGACATGGACTGGGACAACCTGCGG
- binding result [4]: binds
